Results from PMC8184503 (iScience, 2021).
Primed or numbered codes have the meaning given here. Where no end group is shown, it is not given here. FITC′ = fluorescein isothiocyanate

Target: T1, His-tagged β-cat (ARM domain, aa 134-668) (UniProt P35222 134-668)
T1 sequence (looked up): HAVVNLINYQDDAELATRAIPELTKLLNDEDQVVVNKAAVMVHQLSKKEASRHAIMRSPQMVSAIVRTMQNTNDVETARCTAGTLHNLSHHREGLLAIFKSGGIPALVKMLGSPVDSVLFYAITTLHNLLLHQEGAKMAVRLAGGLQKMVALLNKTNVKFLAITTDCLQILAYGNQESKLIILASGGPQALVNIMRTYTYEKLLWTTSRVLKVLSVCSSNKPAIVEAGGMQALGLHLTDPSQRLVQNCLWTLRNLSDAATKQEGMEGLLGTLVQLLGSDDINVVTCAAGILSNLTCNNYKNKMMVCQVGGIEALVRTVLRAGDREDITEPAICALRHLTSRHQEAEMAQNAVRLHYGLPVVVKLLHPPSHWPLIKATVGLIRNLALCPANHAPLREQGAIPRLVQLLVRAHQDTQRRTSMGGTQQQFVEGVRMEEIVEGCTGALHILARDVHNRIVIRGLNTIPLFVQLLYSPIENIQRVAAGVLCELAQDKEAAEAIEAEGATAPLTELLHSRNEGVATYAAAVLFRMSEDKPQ
Experiment: SPR

B1: GST-tagged TCF4 N-terminal domain (aa 1-55) (domain or fragment, UniProt Q9NQB0 1-55, looked up)
chain: MPQLNGGGGDDLGANDELISFKDEGEQEEKSSENSSAERDLADVKSSLVNESETN
- binding result: binds

B2: C-terminal FITC-labeled TCF4 peptide (aa 7-51) (peptide)
peptide: GGGDDLGANDELISFKDEGEQEEKSSENSSAERDLADVKSSLVNE-{FITC′}
- IC50: 29 nM
